Measurements reported in article PMC3551606.

The substances below were run against Drosophila cathepsin B (Drosophila).

Substance	CTSB activity % (residual activity on ZFR-AMC with 3 µM crammer variant, 75 nM CTSB, pH 5.0, 20°C) [%]
crammer D6A (natural protein)	21.1
crammer E67A (natural protein)	54.1
crammer K36A (natural protein)	29

Other lines, results leading:

CTSB activity % (residual activity on ZFR-AMC with 3 µM crammer variant, 75 nM CTSB, pH 5.0, 20°C) [%]	Substance
77.7	crammer E8A (natural protein)
19	crammer E24A (natural protein)
89	crammer R28A (natural protein)
64	crammer R29A (natural protein)

Biological target: Drosophila cathepsin B (Drosophila)
Remark: another data set of the same source

Substance	CTSB activity % (residual activity on ZFR-AMC with 3 µM crammer variant, 75 nM CTSB, pH 5.0, 20°C) [%]
Drosophila melanogaster crammer, wild type (natural protein)	14.7
crammer F16A (natural protein)	34.6
crammer F46A (natural protein)	41
crammer Y12A (natural protein)	63
crammer Y20A (natural protein)	47.8
crammer Y32A (natural protein)	67.6

Second part, the substance after the results:

CTSB activity % (residual activity on ZFR-AMC with 3 µM crammer variant, 75 nM CTSB, pH 5.0, 20°C) [%]	Substance
87.8	crammer W9A (natural protein)
85.2	crammer W53A (natural protein)

Biological target: Drosophila cathepsin B (Drosophila)
Remark: another data set of the same source

reduction of CTSB activity at 3 µM crammer variant (text's number; differs from 100 minus the table's cell) [%]	Substance
64	crammer F16A (natural protein)
